Molecular target: m19-humBBz CAR (mouse; human) (UniProt P01731)
Assay: cell-based or functional assay

B1: TRAF1 DN (184-417aa) (protein, UniProt Q13077 184-416, looked up, not shown: small tags and cut ends; large carriers)
chain: EKLLAELEGKLRVFENIVAVLNKEVEASHLALATSIHQSQLDRERILSLEQRVVELQQTLAQKDQALGKLEQSLRLMEEASFDGTFLWKITNVTRRCHESACGRTVSLFSPAFYTAKYGYKLCLRLYLNGDGTGKRTHLSLFIVIMRGEYDALLPWPFRNKVTFMLLDQNNREHAIDAFRPDLSSASFQRPQSETNVASGCPLFFPLSKLQSPKHAYVKDDTMFLKCIVETST
NF-κB signaling in NF-κB/293/GFP-Luc reporter cells, GFP %: 13.4%
NF-κB signaling in NF-κB/293/GFP-Luc reporter cells, GFP MFI: 1690 MFI

B2: TRAF3 DN (382-568aa) (protein, UniProt Q13114 382-568, looked up, not shown: small tags and cut ends; large carriers)
chain: ESQLSRHDQMLSVHDIRLADMDLRFQVLETASYNGVLIWKIRDYKRRKQEAVMGKTLSLYSQPFYTGYFGYKMCARVYLNGDGMGKGTHLSLFFVIMRGEYDALLPWPFKQKVTLMLMDQGSSRRHLGDAFKPDPNSSSFKKPTGEMNIASGCPVFVAQTVLENGTYIKDDTIFIKVIVDTSDLPDP
NF-κB signaling in NF-κB/293/GFP-Luc reporter cells, GFP %: 30.8%
NF-κB signaling in NF-κB/293/GFP-Luc reporter cells, GFP MFI: 6060 MFI

B3: TRAF2 DN (87-501aa) (protein, UniProt Q12933 87-501, looked up, not shown: small tags and cut ends; large carriers)
chain: SSSAFPDNAARREVESLPAVCPSDGCTWKGTLKEYESCHEGRCPLMLTECPACKGLVRLGEKERHLEHECPERSLSCRHCRAPCCGADVKAHHEVCPKFPLTCDGCGKKKIPREKFQDHVKTCGKCRVPCRFHAIGCLETVEGEKQQEHEVQWLREHLAMLLSSVLEAKPLLGDQSHAGSELLQRCESLEKKTATFENIVCVLNREVERVAMTAEACSRQHRLDQDKIEALSSKVQQLERSIGLKDLAMADLEQKVLEMEASTYDGVFIWKISDFARKRQEAVAGRIPAIFSPAFYTSRYGYKMCLRIYLNGDGTGRGTHLSLFFVVMKGPNDALLRWPFNQKVTLMLLDQNNREHVIDAFRPDVTSSSFQRPVNDMNIASGCPLFCPVSKMEAKNSYVRDDAIFIKAIVDLTGL
NF-κB signaling in NF-κB/293/GFP-Luc reporter cells, GFP MFI: 14300 MFI
NF-κB signaling in NF-κB/293/GFP-Luc reporter cells, GFP+%: 63.5%

Reference: US20230265184A1
